Experimental data: publication PMC11491487

How the values were obtained:
[1] = target: chiRyR-I4657M/G4819E (chiRyR carrying the two resistance mutations) (rabbit) (UniProt P11716); assay: cryo-EM structure; 5 mg/ml purified chiRyR samples with 5 mM caffeine, 2 mM ATP, 100 µM CaM1234, Ca2+, 2% or 5% DMSO, with or without diamide (50 µM FLU or TET; 625 µM CHL); 1 h at room temperature; C4 symmetry in refinement
[2] = target: chimeric RyR (chiRyR): rabbit RyR1 carrying four Spodoptera frugiperda RyR residues of the diamide-binding pocket (rabbit) (UniProt P11716); assay: as above

Row | Substance | stoichiometry N [1] | stoichiometry N [2]
1 | chiRyR-I4657M/G4819E (chiRyR carrying the two resistance mutations), P11716 1-5037 (receptor) | 4 | 
2 | chimeric RyR (chiRyR): rabbit RyR1 carrying four Spodoptera frugiperda RyR residues of the diamide-binding pocket, P11716 1-5037 (receptor) |  | 4
